Source: patent publication US10857209B2, “Lysosomal acid lipase and PPAR gamma ligands as immune therapies for cancer treatment” (Indiana University Research and Technology Corporation, priority 2016, dated 2020)

B1: hLAL: human lysosomal acid lipase expressed from a doxycycline-controlled tissue-specific transgene in lal−/− mice; never administered as a protein (protein)
chain: GPKPVVFLQHGLLADSSNWVTNLANSSLGFILADAGFDVWMGNSRGNTWSRKHKTLSVSQDEFWAFSYDEMAKYDLPASINFILNKTGQEQVYYVGHSQGTTIGFIAFSQIPELAKRIKMFFALGPVASVAFCTSPMAKLGRLPDHLIKDLFGDKEFLPQSAFLKWLGTHVCTHVILKELCGNLCFLLCGFNERNLNMSRVDVYTTHSPAGTSVQNMLHWSQAVKFQKFQAFDWGSSAKNYFHYNQSYPPTYNVKDMLVPTAVWSGGHDWLADVYDVNILLTQITNLVFHESIPEWEHLDFIWGLDAPWRLYNKIINLMRKYQ
modifications: left off: small tags and cut ends
notes: human lysosomal acid lipase expressed from a doxycycline-controlled tissue-specific transgene in lal−/− mice; never administered as a protein

Columns and labels:
[1] = test system: B16 melanoma cells; test: Transwell assay, effect of MDSC-secreted cytokines on melanoma cell proliferation; type: cell-based, mouse; settings: pre-treated lal−/− Ly6G+ cells in upper chamber; 72 hours
Procedure: To observe the effect of MDSCs-secreted cytokines on melanoma cell proliferation, transwell assay was performed with 0.4-μm-pore 6.5-mm diameter Transwell plates (Corning) to separate MDSCs and B16 melanoma cells. One million pre-treated MDSCs in 200 μL media were seeded into the upper chamber of the plates, while 2×10^4 melanoma cells in 500 μL media were placed in the lower chamber. After 72 hours' culture, the transwells were removed, and the number of B16 melanoma cells in the lower chamber was counted.

[2] = Histology and morphometry of organs in CCSP-Tg/KO mice (lung epithelial hLAL expression); type: in vivo, mouse
Description: Wild-type (lal^+/+) and lal^−/− mice of the FVB/N background were bred in house. CCSP-rtTA/(TetO)7-CMV-hLAL; lal^−/− (CCSP-Tg/KO) triple mice were generated by crossbreeding previously made CCSP-rtTA transgenic mice and (TetO)7-CMV-hLAL transgenic mice into lal^−/− mice. This triple transgenic mouse model is lung AT II epithelial cells-specific Tet-on expression of wild-type human LAL (hLAL) in lal^−/− mice under the control of the CCSP promoter. All scientific protocols involving the use of animals were approved by the Institutional Animal Care and Use Committee of Indiana University School of Medicine and followed guidelines established by the Panel on Euthanasia of the American Veterinary Medical Association. Animals were housed under Institutional Animal Care and Use Committee-approved conditions in a secured animal facility at Indiana University School of Medicine.
The lungs were harvested and fixed with 4% paraformaldehyde in PBS at 4° C. overnight. After embedding in paraffin, tissue sections were cut to 5 μm thick. Hematoxylin and eosin (H&E) staining was performed by the Histological Core Facility, Department of Pathology and Laboratory Medicine, Indiana University. […] Images were analyzed by Nikon NIS Elements imaging software. […] The alveoli were assessed by area, diameter and perimeter using the integrated morphometry analysis tool. […]

[3] = test system: B16 melanoma cells; test: B16 melanoma growth and metastasis in myeloid-specific hLAL Tg/KO triple mice; type: in vivo, mouse; settings: myeloid-specific expression
Description: lal^+/+ and lal^−/− mice of the FVBN background were bred in house. c-fms-rtTA/(TetO)7-CMV-hLAL; lal^−/− (Tg/KO) triple mice of the FVBN background is a previously generated triple transgenic mouse model with myeloid-specific doxycycline-inducible expression of wild-type human LAL (hLAL) in lal^−/− mice under the control of the c-fms promoter. All scientific protocols involving the use of animals have been approved by the Institutional Animal Care and Use Committee of Indiana University School of Medicine and followed guidelines established by the Panel on Euthanasia of the American Veterinary Medical Association. Animals were housed under Institutional Animal Care and Use Committee-approved conditions in a secured animal facility at the Indiana University School of Medicine.
Four-month-old lal^+/+ or lal^−/− mice were inoculated with 1×10^5 B16 melanoma cells subcutaneously into the flank region, and tumor size (length×width^2×π/6) was monitored every week for 3 weeks. For intravenous injection of B16 melanoma cells, 5×10^5 B16 melanoma cells in 200 μl PBS were injected into 4-month-old lal^+/+ or lal^−/− mice via tail vein. A pilot study was performed to determine the best ratio between MDSCs and B16 melanoma cells. For co-injection of MDSCs and B16 melanoma cells via tail vein, 2×10^6 MDSCs and 5×10^5 B16 melanoma cells were mixed and incubated at 37° C. and 5% CO2 for 30 minutes. […]

[4] = test system: cytokines and chemokines; test: Cytokines and chemokines in BALF and plasma (ELISA) and lung (RT-PCR) of CCSP-Tg/KO mice; type: in vivo, mouse
Procedure: BALF was collected by 1 mL PBS. The expression levels of IL-6, GM-CSF, MCP-1 and TNFα in the BALF and plasma were measured using ELISA kits (BD Biosciences, San Jose, Calif.) according to the manufacturer's instructions.
Total RNAs were purified from lungs of lal^+/+, lal^−/− and CCSP-Tg/KO triple mice using RNeasy Mini Kits according to the manufacturer's instruction (Qiagen, Valencia, Calif., USA). Quantitative (q)RT-PCR was performed as described previously (Wu et al., Blood. 2012; 119:115-26). Analysis was performed by the 2^−ΔΔCT method. Primers of mIL-6, mIL-1β, mIL-10, mGM-CSF, mM-CSF, mTNF-α, mMCP-1, mCCL5 and GAPDH were used for real-time PCR.

[5] = test system: LLC or B16 melanoma cells; test: In vitro BALF treatment of tumor cells (proliferation, wound healing); type: cell-based, mouse
Procedure: BALF was harvested by 1 mL PBS, and cells were removed by centrifugation. To determine the effect of BALF on tumor cell proliferation, B16 melanoma or LLC cells (5×10^3) were seeded into a well of 96-well plates in 100 μL DMEM supplemented with 10% FBS, and then treated with 100 μL BALF harvested from lal^+/+, lal^−/− or CCSP-Tg/KO triple mice. Seventy-two hours later, the number of B16 melanoma or LLC cells was counted.
To analyze the effects of BALF on tumor cell or EC migration, in vitro wound healing assays were performed. Briefly, tumor cells or ECs were seeded at a density of 1.5×10^5 cells/well into a 24-well plate and incubated overnight to form a confluent monolayer. Scratch was created by scraping the cell monolayer in a straight line with a p200 pipet tip. After washing 3 times with PBS, the medium was changed with 250 μL DMEM containing 10% FBS and 5 μg/mL mitomycin C (Sigma-Aldrich). Then 250 μL BALF from lal^+/+, lal^−/− or CCSP-Tg/KO triple mice were added to the well. Cells were kept on culture at 37° C., 5% CO2. Images were taken at 0 and 15 hours after creating the scratch. Migration was estimated by measuring the distances from one side of the scratch to the other side using Image Pro-Plus software (Media Cybernetics, Rockville, Md., USA).

[6] = doxycycline-treated vs untreated CCSP-Tg/KO mice
[7] = doxycycline-treated CCSP-Tg/KO mice

Molecule | number of B16 melanoma cells in lower chamber [1] | liver and spleen pathology [2, 6] | lung damage (emphysema, alveolar area, diameter, perimeter) ([2]; lung epithelial expression, doxycycline-treated CCSP-Tg/KO mice) | decrease of tumor volume vs untreated mice ([3]; doxycycline-treated Tg/KO triple mice, B16 s.c., 2 weeks post-injection) | melanoma colonies in the lungs ([3]; doxycycline-treated vs untreated Tg/KO triple mice, B16 i.v., 2 weeks) | lung GM-CSF mRNA level [4, 7] | lung mRNA levels of IL-6, MCP-1, TNFα, CCL5, IL-10 and IL-1β [4, 7] | IL-6, GM-CSF, MCP-1 and TNFα concentrations in BALF (ELISA) [4, 6] | IL-6, GM-CSF, MCP-1 and TNFα levels in the plasma [4, 6] | tumor cell proliferation in vitro ([5]; LLC or B16 cells cultured 72 hours with BALF from doxycycline-treated CCSP-Tg/KO mice) | tumor cell migration in vitro ([5]; LLC or B16 cells, wound healing 15 hours, BALF from doxycycline-treated CCSP-Tg/KO mice, mitomycin C)
9-hydroxyoctadecadienoic acid [9-HODE] | significantly less | – | – | – | – | – | – | – | – | – | –
B1 | – | no improvement in the liver and spleen | partially restored | 50% | reduced number of melanoma colonies in the lungs | remained unchanged | significantly down-regulated | significantly decreased | similar | reduced | reduced
